PMC10085699

Tests used:
SETX-HD-R/H = target: T1, SETX-HD-R/H (Homo sapiens, UniProt Q7Z333 1674-2677, R2136H); assay: EMSA
T1 sequence: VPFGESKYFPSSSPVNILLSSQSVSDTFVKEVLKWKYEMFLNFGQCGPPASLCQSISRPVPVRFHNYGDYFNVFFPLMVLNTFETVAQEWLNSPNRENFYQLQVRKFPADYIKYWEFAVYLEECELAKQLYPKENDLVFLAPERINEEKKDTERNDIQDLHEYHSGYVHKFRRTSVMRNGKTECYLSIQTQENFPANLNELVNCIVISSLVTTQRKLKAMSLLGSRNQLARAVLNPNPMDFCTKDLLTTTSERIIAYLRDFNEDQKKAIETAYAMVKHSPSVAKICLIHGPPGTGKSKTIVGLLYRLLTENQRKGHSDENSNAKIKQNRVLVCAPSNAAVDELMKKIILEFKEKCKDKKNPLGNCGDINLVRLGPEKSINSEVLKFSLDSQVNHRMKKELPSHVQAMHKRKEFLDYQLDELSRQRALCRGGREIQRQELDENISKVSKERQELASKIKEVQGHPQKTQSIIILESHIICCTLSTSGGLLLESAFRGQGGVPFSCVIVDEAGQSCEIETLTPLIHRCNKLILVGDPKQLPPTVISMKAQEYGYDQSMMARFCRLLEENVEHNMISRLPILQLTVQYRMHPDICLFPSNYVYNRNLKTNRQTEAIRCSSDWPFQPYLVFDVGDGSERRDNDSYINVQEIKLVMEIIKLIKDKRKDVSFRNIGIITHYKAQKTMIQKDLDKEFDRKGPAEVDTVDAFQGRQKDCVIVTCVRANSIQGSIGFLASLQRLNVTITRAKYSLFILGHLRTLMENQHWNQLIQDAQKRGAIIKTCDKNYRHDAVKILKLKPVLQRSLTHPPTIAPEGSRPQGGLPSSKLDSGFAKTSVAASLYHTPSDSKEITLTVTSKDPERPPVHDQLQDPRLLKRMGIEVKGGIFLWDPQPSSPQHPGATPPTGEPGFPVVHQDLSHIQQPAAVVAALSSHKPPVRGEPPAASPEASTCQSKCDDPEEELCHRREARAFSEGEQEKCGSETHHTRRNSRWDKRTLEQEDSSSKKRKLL

SETX-HD-V1884T = target: T2, SETX-HD-V1884T (Homo sapiens, UniProt Q7Z333 1674-2677, V1884T); assay: EMSA
T2 sequence: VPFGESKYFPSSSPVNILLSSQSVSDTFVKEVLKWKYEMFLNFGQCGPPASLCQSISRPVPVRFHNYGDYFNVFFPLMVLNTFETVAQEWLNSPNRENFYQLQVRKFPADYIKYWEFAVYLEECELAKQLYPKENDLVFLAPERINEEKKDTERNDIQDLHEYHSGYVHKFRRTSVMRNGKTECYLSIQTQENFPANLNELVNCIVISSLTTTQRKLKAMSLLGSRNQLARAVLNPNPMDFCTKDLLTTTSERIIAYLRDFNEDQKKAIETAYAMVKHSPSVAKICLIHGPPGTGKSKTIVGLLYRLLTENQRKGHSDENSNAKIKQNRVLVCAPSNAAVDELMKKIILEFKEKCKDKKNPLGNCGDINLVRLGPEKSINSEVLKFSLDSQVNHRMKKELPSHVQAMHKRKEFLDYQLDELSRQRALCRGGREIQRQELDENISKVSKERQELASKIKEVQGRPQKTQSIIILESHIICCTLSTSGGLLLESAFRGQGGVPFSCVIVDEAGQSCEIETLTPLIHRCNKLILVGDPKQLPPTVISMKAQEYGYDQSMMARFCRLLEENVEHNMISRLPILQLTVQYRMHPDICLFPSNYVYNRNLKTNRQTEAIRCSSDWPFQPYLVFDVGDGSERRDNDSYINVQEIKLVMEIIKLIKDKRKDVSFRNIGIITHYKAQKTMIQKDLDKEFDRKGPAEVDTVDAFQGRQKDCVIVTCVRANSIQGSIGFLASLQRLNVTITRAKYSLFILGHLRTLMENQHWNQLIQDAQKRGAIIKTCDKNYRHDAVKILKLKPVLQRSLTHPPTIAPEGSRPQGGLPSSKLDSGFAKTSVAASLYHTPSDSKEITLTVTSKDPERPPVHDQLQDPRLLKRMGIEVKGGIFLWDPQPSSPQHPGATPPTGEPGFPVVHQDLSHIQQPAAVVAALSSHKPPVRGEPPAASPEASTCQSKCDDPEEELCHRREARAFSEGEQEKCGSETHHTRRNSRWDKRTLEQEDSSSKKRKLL

B1: ssRNA pRMS678 (61 nt) (ssRNA)
RNA: UUGUCUUCUCAUAAAUUUAAUCCCCGUACGCUUAUACUCCUUUAACUACCCAGUCUUCCCG
- binding result (SETX-HD-R/H): binds
- binding result (SETX-HD-V1884T): binds
